# From patent US20240053325A1, “NOVEL SCREENING PLATFORM TO IDENTIFY IMMUNE MODULATORY AGENTS” (PRESIDENT AND FELLOWS OF HARVARD COLLEGE, priority 2020, published 2024)
# Columns and labels:
# [1] = molecular target: IL-17RA/RB reporter (IL-17RA-tTA and IL-17RB-TEV co-expressed in reporter cells) (Mus musculus); assay: cell-based or functional assay
# TNFαR1 = molecular target: T1, TNFαR1 (Homo sapiens, UniProt P19438); assay: TNF-α reporter; type: cell-based; conditions: incubated for 24 hours with different amounts
# T1 construct: expressed in transfected cells
# Description: (§1) IL-10/IFN-γ/TNF-α reporters were incubated for 24 hours with different amounts of IL-10 (FIGS. 5A and 5B), IFN-γ (FIGS. 5C and 5D) or TNF-α (FIGS. 5E and 5F).
# (§2) Furthermore, the systems and methods provided herein are applied to generate other cytokine/cytokine receptor reporter system (tTA fused onto one receptor subunit via a protease cleavage site, TEV fused to another receptor subunit, optimal linkers inserted between different proteins to ensure high signal-to-background ratio). The screening platform provided herein are used to identify immune modulatory agents including, but not limited to, small molecules and proteins that modulate cytokine signaling (FIGS. 5A-6F).
# IL-17RA/RB = molecular target: T2, IL-17RA/RB (Mus musculus, UniProt Q60943+Q9JIP3); assay: IL-17RA/RB reporter assay (GFP reporter cells); type: cell-based; conditions: 24 h stimulation, IL-17A-F 100 ng/ml; for increase of percentage of GFP+ cells / GFP expression (reporter response): TNFa 5 ng/ml
# T2 construct: expressed in transfected cells
# Description: Doxycycline was used as a negative regulator of the GFP reporter. IL-17A-F: 100 ng/ml, TNFa: 5 ng/ml, doxycycline: 1 μg/ml.
# Using a similar approach, the inventors have recently also successfully generated the IL-17RA/IL-17RB reporter line (FIG. 4). […] Since IL-17E plays a role in allergy and asthma, small molecules modulators that will be identified using this platform may create a new IP opportunity.
# IL-17RA/RC [2] = molecular target: T3, IL-17RA/RC (Mus musculus, UniProt Q60943+Q8K4C2, F156E); assay: IL-17RA/RC reporter assay (GFP reporter cells); type: cell-based; conditions: 24 h stimulation, IL-17A-F 100 ng/ml; for increase of percentage of GFP+ cells / GFP expression (reporter response): TNFa 5 ng/ml
# T3 construct: expressed in transfected cells
# [3] = molecular target: IL-17RA/RC reporter (IL-17RA-tTA and IL-17RC-TEV co-expressed in reporter cells) (Mus musculus); assay: cell-based or functional assay
# IL-10R = molecular target: T4, IL-10R (Mus musculus, UniProt Q61190+Q61727, C4S); assay: IL-10 reporter; type: cell-based; conditions: incubated for 24 hours with different amounts
# T4 construct: expressed in transfected cells
# Description: as §1, §2
# IL-17RA/RC [4] = molecular target: T5, IL-17RA/RC (Mus musculus, UniProt Q60943+Q8K4C2); assay: IL-17RA/RC reporter assay (GFP reporter cells); type: cell-based; conditions: reporter cells incubated with different amounts for 24 hours
# T5 construct: expressed in transfected cells
# IFNγR = molecular target: T6, IFNγR (Mus musculus, UniProt P15261+Q63953); assay: IFN-γ reporter; type: cell-based; conditions: incubated for 24 hours with different amounts
# T6 construct: expressed in transfected cells
# Description: as §1, §2
molecule,measurement,setting,value
IL-17E (ligand),"percentage of GFP^+ cells (24 h stimulation, 100 ng/ml)",[1],80%
TNFa,dose dependent activation of reporter,TNFαR1,dose dependent activation
same,increase of percentage of GFP+ cells / GFP expression (reporter response),IL-17RA/RB,failed to increase GFP expression
same,increase of percentage of GFP+ cells / GFP expression (reporter response),IL-17RA/RC [2],failed to increase GFP expression
IL-17A (ligand),"percentage of GFP^+ cells (24 h stimulation, 100 ng/ml)",[3],60%
"IL-10: cytokine, used to activate the IL-10 reporter",dose dependent activation of reporter,IL-10R,dose dependent activation
IL-17F: IL-17 family cytokine,dose-dependent activation of the GFP reporter,IL-17RA/RC [4],activate the GFP reporter system in a dose-dependent manner
same,dose-dependent activation of the GFP reporter,IL-17RA/RC [4]; listed as IL-17f,to a lesser degree
IL-17A: IL-17 family cytokine; ligand of the IL-17RA/IL-17RC heterodimer,increase of percentage of GFP+ cells / GFP expression (reporter response),IL-17RA/RC [2],responds highly selectively
same,percentage of GFP+ cells,IL-17RA/RC [2]; increased from 1%,60%
same,dose-dependent activation of the GFP reporter,IL-17RA/RC [4],activate the GFP reporter system in a dose-dependent manner
same,dose-dependent activation of the GFP reporter,IL-17RA/RC [4]; listed as IL-17a,activated in a dose-dependent manner
"IL-17E: IL-17 family cytokine; the natural ligand of IL-17RA/RB (protein, UniProt Q9H293 33-177, looked up) Interleukin-25: YSHWPSCCPSKGQDTSEELLRWSTVPVPPLEPARPNRHPESCRASEDGPLNSRAISPWRYELDRDLNRLPQDLYHARCLCPHCVSLQTGSHMDPRGNSELLYHNQTVFYRRPCHGEKGTHKGYCLERRLYRVSLACVCVRPRVMG",increase of percentage of GFP+ cells / GFP expression (reporter response),IL-17RA/RB,responds highly
same,percentage of GFP+ cells,IL-17RA/RB; increased from 1%,80%
"IFN-γ: dimerized soluble cytokine (interferon) that activates interferon gamma receptors (protein, listed as Homo sapiens) MKYTSYILAFQLCIVLGSLGCYCQDPYVKEAENLKKYFNAGHSDVADNGTLFLGILKNWKEESDRKIMQSQIVSFYFKLFKNFKDDQSIQKSVETIKEDMNVKFFNSNKKKRDDFEKLTNYSVTDLNVQRKAIHELIQVMAELSPAAKTGKRKRSQMLFRGRRASQ",dose dependent activation of reporter,IFNγR,dose dependent activation
"IL-17C: IL-17 family cytokine (protein, UniProt Q9P0M4 19-197, looked up) Interleukin-17C: HHDPSLRGHPHSHGTPHCYSAEELPLGQAPPHLLARGAKWGQALPVALVSSLEAASHRGRHERPSATTQCPVLRPEEVLEADTHQRSISPWRYRVDTDEDRYPQKLAFAECLCRGCIDARTGRETAALNSVRLLQSLLVLRRRPCSRDGSGLPTPGAFAFHTEFIHVPVGCTCVLPRSV",dose-dependent activation of the GFP reporter,IL-17RA/RC [4],not
